B1: Hematopoietic lineage cell-specific protein (protein, UniProt P14317 1-486, looked up)
Hematopoietic lineage …: MWKSVVGHDVSVSVETQGDDWDTDPDFVNDISEKEQRWGAKTIEGSGRTEHINIHQLRNKVSEEHDVLRKKEMESGPKASHGYGGRFGVERDRMDKSAVGHEYVAEVEKHSSQTDAAKGFGGKYGVERDRADKSAVGFDYKGEVEKHTSQKDYSRGFGGRYGVEKDKWDKAALGYDYKGETEKHESQRDYAKGFGGQYGIQKDRVDKSAVGFNEMEAPTTAYKKTTPIEAASSGTRGLKAKFESMAEEKRKREEEEKAQQVARRQQERKAVTKRSPEAPQPVIAMEEPAVPAPLPKKISSEAWPPVGTPPSSESEPVRTSREHPVPLLPIRQTLPEDNEEPPALPPRTLEGLQVEEEPVYEAEPEPEPEPEPEPENDYEDVEEMDRHEQEDEPEGDYEEVLEPEDSSFSSALAGSSGCPAGAGAGAVALGISAVAVYDYQGEGSDELSFDPDDVITDIEMVDEGWWRGRCHGHFGLFPANYVKLLE
B2: Eosinophil cationic protein (protein, UniProt P12724 28-160, looked up)
Eosinophil cationic protein: RPPQFTRAQWFAIQHISLNPPRCTIAMRAINNYRWRCKNQNTFLRTTFANVVNVCGNQSIRCPHNRTLNNCHRSRFRVPLLHCDLINPGAQNISNCTYADRPGRRFYVVACDNRDPRDSPRYPVVPVHLDTTI
B3: sp¦Q9Y2Z0¦SGT1_HUMAN (protein, UniProt Q9Y2Z0 2-365, looked up)
Protein SGT1 homolog: AAAAAGTATSQRFFQSFSDALIDEDPQAALEELTKALEQKPDDAQYYCQRAYCHILLGNYCVAVADAKKSLELNPNNSTAMLRKGICEYHEKNYAAALETFTEGQKLDIETGFHRVGQAGLQLLTSSDPPALDSQSAGITGADANFSVWIKRCQEAQNGSESEVWTHQSKIKYDWYQTESQVVITLMIKNVQKNDVNVEFSEKELSALVKLPSGEDYNLKLELLHPIIPEQSTFKVLSTKIEIKLKKPEAVRWEKLEGQGDVPTPKQFVADVKNLYPSSSPYTRNWDKLVGEIKEEEKNEKLEGDAALNRLFQQIYSDGSDEVKRAMNKSFMESGGTVLSTNWSDVGKRKVEINPPDDMEWKKY
B4: sp¦O43633¦CHM2A_HUMAN (protein, UniProt O43633 1-222, looked up)
Charged multivesicular body …: MDLLFGRRKTPEELLRQNQRALNRAMRELDRERQKLETQEKKIIADIKKMAKQGQMDAVRIMAKDLVRTRRYVRKFVLMRANIQAVSLKIQTLKSNNSMAQAMKGVTKAMGTMNRQLKLPQIQKIMMEFERQAEIMDMKEEMMNDAIDDAMGDEEDEEESDAVVSQVLDELGLSLTDELSNLPSTGGSLSVAAGGKKAEAAASALADADADLEERLKNLRRD
B5: Serpin B10 (protein, UniProt P48595 1-397, looked up)
Serpin B10: MDSLATSINQFALELSKKLAESAQGKNIFFSSWSISTSLTIVYLGAKGTTAAQMAQVLQFNRDQGVKCDPESEKKRKMEFNLSNSEEIHSDFQTLISEILKPNDDYLLKTANAIYGEKTYAFHNKYLEDMKTYFGAEPQPVNFVEASDQIRKDINSWVERQTEGKIQNLLPDDSVDSTTRMILVNALYFKGIWEHQFLVQNTTEKPFRINETTSKPVQMMFMKKKLHIFHIEKPKAVGLQLYYKSRDLSLLILLPEDINGLEQLEKAITYEKLNEWTSADMMELYEVQLHLPKFKLEDSYDLKSTLSSMGMSDAFSQSKADFSGMSSARNLFLSNVFHKAFVEINEQGTEAAAGSGSEIDIRIRVPSIEFNANHPFLFFIRHNKTNTILFYGRLCSP
B6: Annexin A5 (protein, UniProt P08758 2-320, looked up)
Annexin A5: AQVLRGTVTDFPGFDERADAETLRKAMKGLGTDEESILTLLTSRSNAQRQEISAAFKTLFGRDLLDDLKSELTGKFEKLIVALMKPSRLYDAYELKHALKGAGTNEKVLTEIIASRTPEELRAIKQVYEEEYGSSLEDDVVGDTSGYYQRMLVVLLQANRDPDAGIDEAQVEQDAQALFQAGELKWGTDEEKFITIFGTRSVSHLRKVFDKYMTISGFQIEETIDRETSGNLEQLLLAVVKSIRSIPAYLAETLYYAMKGAGTDDHTLIRVMVSRSEIDLFNIRKEFRKNFATSLYSMIKGDTSGDYKKALLLLCGEDD
B7: sp¦P24534¦EF1B_HUMAN (protein, UniProt P24534 2-225, looked up)
Elongation factor 1-beta: GFGDLKSPAGLQVLNDYLADKSYIEGYVPSQADVAVFEAVSSPPPADLCHALRWYNHIKSYEKEKASLPGVKKALGKYGPADVEDTTGSGATDSKDDDDIDLFGSDDEEESEEAKRLREERLAQYESKKAKKPALVAKSSILLDVKPWDDETDMAKLEECVRSIQADGLVWGSSKLVPVGYGIKKLQIQCVVEDDKVGTDMLEEQITAFEDYVQSMDVAAFNKI
B8: sp¦P40121¦CAPG_HUMAN (protein, UniProt P40121 1-348, looked up)
Macrophage-capping protein: MYTAIPQSGSPFPGSVQDPGLHVWRVEKLKPVPVAQENQGVFFSGDSYLVLHNGPEEVSHLHLWIGQQSSRDEQGACAVLAVHLNTLLGERPVQHREVQGNESDLFMSYFPRGLKYQEGGVESAFHKTSTGAPAAIKKLYQVKGKKNIRATERALNWDSFNTGDCFILDLGQNIFAWCGGKSNILERNKARDLALAIRDSERQGKAQVEIVTDGEEPAEMIQVLGPKPALKEGNPEEDLTADKANAQAAALYKVSDATGQMNLTKVADSSPFALELLISDDCFVLDNGLCGKIYIWKGRKANEKERQAALQVAEGFISRMQYAPNTQVEILPQGHESPIFKQFFKDWK
B9: sp¦P30533¦AMRP_HUMAN (protein, UniProt P30533 35-357, looked up)
Alpha-2-macroglobulin …: YSREKNQPKPSPKRESGEEFRMEKLNQLWEKAQRLHLPPVRLAELHADLKIQERDELAWKKLKLDGLDEDGEKEARLIRNLNVILAKYGLDGKKDARQVTSNSLSGTQEDGLDDPRLEKLWHKAKTSGKFSGEELDKLWREFLHHKEKVHEYNVLLETLSRTEEIHENVISPSDLSDIKGSVLHSRHTELKEKLRSINQGLDRLRRVSHQGYSTEAEFEEPRVIDLWDLAQSANLTDKELEAFREELKHFEAKIEKHNHYQKQLEIAHEKLRHAESVGDGERVSRSREKHALLEGRTKELGYTVKKHLQDLSGRISRARHNEL
B10: sp¦O75368¦SH3L1_HUMAN (protein, UniProt O75368 1-114, looked up)
Adapter SH3BGRL: MVIRVYIASSSGSTAIKKKQQDVLGFLEANKIGFEEKDIAANEENRKWMRENVPENSRPATGYPLPPQIFNESQYRGDYDAFFEARENNAVYAFLGLTAPPGSKEAEVQAKQQA
B11: sp¦P04080¦CYTB_HUMAN (protein, UniProt P04080 1-98, looked up)
Cystatin-B: MMCGAPSATQPATAETQHIADQVRSQLEEKENKKFPVFKAVSFKSQVVAGTNYFIKVHVGDEDFVHLRVFQSLPHENKPLTLSNYQTNKAKHDELTYF
B12: sp¦P08246¦ELNE_HUMAN (protein, UniProt P08246 30-267, looked up)
Neutrophil elastase: IVGGRRARPHAWPFMVSLQLRGGHFCGATLIAPNFVMSAAHCVANVNVRAVRVVLGAHNLSRREPTRQVFAVQRIFENGYDPVNLLNDIVILQLNGSATINANVQVAQLPAQGRRLGNGVQCLAMGWGLLGRNRGIASVLQELNVTVVTSLCRRSNVCTLVRGRQAGVCFGDSGSPLVCNGLIHGIASFVRGGCASGLYPDAFAPVAQFVNWIDSIIQRSEDNPCPHPRDPDPASRTH
B13: sp¦O95816¦BAG2_HUMAN (protein, UniProt O95816 2-211, looked up)
BAG family molecular …: AQAKINAKANEGRFCRSSSMADRSSRLLESLDQLELRVEALREAATAVEQEKEILLEMIHSIQNSQDMRQISDGEREELNLTANRLMGRTLTVEVSVETIRNPQQQESLKHATRIIDEVVNKFLDDLGNAKSHLMSLYSACSSEVPHGPVDQKFQSIVIGCALEDQKKIKRRLETLLRNIENSDKAIKLLEHSKGAGSKTLQQNAESRFN
B14: sp¦Q15370¦ELOB_HUMAN (protein, UniProt Q15370 1-118, looked up)
Elongin-B: MDVFLMIRRHKTTIFTDAKESSTVFELKRIVEGILKRPPDEQRLYKDDQLLDDGKTLGECGFTSQTARPQAPATVGLAFRADDTFEALCIEPFSSPPELPDVMKPQDSGSSANEQAVQ
B15: sp¦Q9P013¦CWC15_HUMAN (protein, UniProt Q9P013 2-229, looked up)
Spliceosome-associated …: TTAARPTFEPARGGRGKGEGDLSQLSKQYSSRDLPSHTKIKYRQTTQDAPEEVRNRDFRRELEERERAAAREKNRDRPTREHTTSSSVSKKPRLDQIPAANLDADDPLTDEEDEDFEEESDDDDTAALLAELEKIKKERAEEQARKEQEQKAEEERIRMENILSGNPLLNLTGPSQPQANFKVKRRWDDDVVFKNCAKGVDDQKKDKRFVNDTLRSEFHKKFMEKYIK
B16: sp¦P30740¦ILEU_HUMAN (protein, UniProt P30740 1-379, looked up)
Leukocyte elastase inhibitor: MEQLSSANTRFALDLFLALSENNPAGNIFISPFSISSAMAMVFLGTRGNTAAQLSKTFHFNTVEEVHSRFQSLNADINKRGASYILKLANRLYGEKTYNFLPEFLVSTQKTYGADLASVDFQHASEDARKTINQWVKGQTEGKIPELLASGMVDNMTKLVLVNAIYFKGNWKDKFMKEATTNAPFRLNKKDRKTVKMMYQKKKFAYGYIEDLKCRVLELPYQGEELSMVILLPDDIEDESTGLKKIEEQLTLEKLHEWTKPENLDFIEVNVSLPRFKLEESYTLNSDLARLGVQDLFNSSKADLSGMSGARDIFISKIVHKSFVEVNEEGTEAAAATAGIATFCMLMPEENFTADHPFLFFIRHNSSGSILFLGRFSSP
B17: sp¦P13693¦TCTP_HUMAN (protein, UniProt P13693 1-172, looked up)
Translationally-controlled …: MIIYRDLISHDEMFSDIYKIREIADGLCLEVEGKMVSRTEGNIDDSLIGGNASAEGPEGEGTESTVITGVDIVMNHHLQETSFTKEAYKKYIKDYMKSIKGKLEEQRPERVKPFMTGAAEQIKHILANFKNYQFFIGENMNPDGMVALLDYREDGVTPYMIFFKDGLEMEKC

Each molecule was assayed on human HL60 cells (assay: SWATH-MS proteomics, differential protein representation, akirin2 KO vs WT HL60 cells). Details: SWATH-MS, akirin2 KO vs WT HL60 cells; over-represented in KO.
Type: cell-based
In short: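 Proteins from WT and akirin2 KO HL60 cells (n=3 biological replicates) were FASP trypsin-digested and analyzed by SWATH-MS DIA with variable windows against an IDA-derived spectral library. Identifications at 1% global FDR; quantities normalized to total area sums of all detected proteins.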

Molecule | Fold Change | Log (Fold Change)
B1 | 1.764 | 0.2466
B2 | 5.495 | 0.7399
B3 | 1.579 | 0.1983
B4 | 1.663 | 0.2209
B5 | 1.749 | 0.2428
B6 | 1.702 | 0.231
B7 | 1.59 | 0.2013
B8 | 1.617 | 0.2088
B9 | 1.604 | 0.2053
B10 | 1.672 | 0.2233
B11 | 1.628 | 0.2117
B12 | 1.634 | 0.2132
B13 | 1.58 | 0.1985
B14 | 1.578 | 0.1982
B15 | 1.692 | 0.2285
B16 | 1.651 | 0.2178
B17 | 1.634 | 0.2132

From publication PMC8298264, “Function of cofactor Akirin2 in the regulation of gene expression in model human neutrophil-like HL60 cells” (Bioscience Reports, 2021)
